Substitutions are numbered along the chain they refer to.

A short description of series [1]: FP purification and fluorescence characterization in vitro (spectra, extinction coefficient, quantum yield). It counts as physicochemical. On the procedure: FP genes were expressed on a pBAD vector (Life Technologies) with a polyhistidine tag on the C terminus, cells were lysed with B-PER (Thermo Scientific), and purified using Ni-NTA (Qiagen) puri-fication. PCB (HO-1+PcyA) and BV (HO-1) incorporation in Escherichia coli was performed simultaneously during constitu-tively active FP expression. Extinction coefficient was determined by PCB or BV absorbance as described35,36 (Table 3, smURFP+BV and TDsmURFP+BV, and Table 2) or calculated for the apoproteins by determining the protein concentration by the BCA protein assay (Pierce), and a specific chromo-phore concentration was added (specified in the Purification of FP lacking chromophore and in vitro chromophore incorporation section) to get 1 and 2 chromophore species (Table 5, not including (Escherichia coli)). When FP chromophore (PCB or BV) was expressed in Escherichia coli, the PCB and BV Q band had absorbance that overlapped with detection of BCA or Bradford assay of 562 nm and 592 nm, respectively. We used the previously published protocols35,36, where there was no change of the BV absorbance at 390 nm when free in solution or attached to the FP. smURFP+BV denaturation with 1 M urea caused no change in the BV absorbance at 390 nm, but the Q band was reduced ˜20-fold. Therefore, the extinction coefficient of BV at 390 nm was used to calculate the concentration of holoprotein (FP+PCB or BV) concentration.
(§1) EX and EM spectra were obtained using SPEX Fluorolog fluorometer (Horiba). Absorbance spectra were obtained using UV-VIS Spectrophotometer Cary Eclipse (Varian) or UV-2700 (Shimadzu). Quantum yield was determined relative to Cy5. Incorporation rates of BV on 0.5 μM smURFP was performed by addition of smURFP to PBS alone or with 20% fetal bovine serum (FBS) and mixed by pipetting in a quartz cuvette. Chromophore was added last, mixed by pipetting, and fluorescence was recorded using SPEX Fluorolog fluorometer (Horiba). Photobleaching was characterized on bubbles of purified FP or Cy5 within mineral oil using light from a 150 W xenon arc lamp with 100% light through EX/EM=628(40)/680(30) nm for smURFP, TDsmURFP, and Cy5 or EX/EM=665 (45)/725 (50) nm for IFP 1.4 focused with a 40×, 1.2 numerical aperture C-Apochromat oil-immersion lens on a Zeiss Axiovert 200M inverted microscope. Photobleaching times were normalized to reflect an initial illumination intensity producing 1,000 photons per fluorescent molecule per second as previously described^37.
HO-1 was removed by digesting the pBAD vector (Life Technology) with MscI and PmeI (NEB). smURFP and TDsmURFP were expressed and purified as described above. No chromophore was present on smURFP and TDsmURFP (confirmed by UV, fluorescence imaging, and MS). For predominant fluorescent species+2 chromophores, a ten-fold excess of chromophore was added to smURFP and TDsmURFP. For predominant fluorescent species+1 chromophore, a quarter concentration of chromophore was added to smURFP and TDsmURFP. Chromophore was added in PBS+10% FBS at 37° C. overnight. smURFP+chromophore and TDsmURFP+chromophore were purified using NiNTA (Qiagen) to remove excess or noncovalently attached chromophore.

Series [2] in a line: In vitro photobleaching of bubbles of purified FP or Cy5 in mineral oil. It counts as physicochemical. On the procedure: as §1
The test system of the next series is Escherichia coli. Description: Fluorescence of FPs expressed in Escherichia coli. It counts as cell-based. The conditions noted are these: for fold brighter than R4-1: expressed in E. coli with HO-1. On the procedure:
TeAPCα gene (codons optimized for Escherichia coli) was made by GenScript. Mutations were placed by random mutagenesis using GeneMorphII Random Mutagenesis Kit (Agilent Technologies). Screens for mutants that fluoresce with PCB or BV were performed by subcloning into a pBAD vector (Life Technologies) that expressed cyanobacteria Synechocystis HO-1 and Synechocystis PcyA genes for PCB production and Synechocystis HO-1 only for BV production, as previously described^34. Libraries were expressed in TOP 10 Electrocompetent Escherichia coli cells (Life Technologies) with addition of 0.2% arabinose to LB agar plates (FPs were constitutively expressed in Escherichia coli). Fluorescence was imaged on plates using a BioSpectrum AC Imaging System (UVP) with EX/EM=628(40)/690(50) nm for FPs+PCB, EX/EM=685(40)/710LP nm for rounds 4 and 5 FPs+BV, and EX/EM=650(13)/690(50) nm for Cy5-like FPs+BV (rounds 6-12). At round 6, 5-10 of the brightest colonies on each plate were combined in LB+0.2% arabinose, grown ˜18 h, mixture of plasmid DNA was purified, and TOP10 cells were transformed and plated on LB agar plates+0.2% arabinose. Fluorescence was screened on plates (as described above), 10-20 of the brightest colonies were screened in liquid culture fluorescence (FIG. 7a-e), plasmid DNA was purified, and DNA was sequenced. The plasmid DNA of 2-3 of the brightest FPs was chosen for mutagenesis for the subsequent round. When choosing DNA for subsequent mutagenesis rounds, genes with increased and/or novel silent DNA mutations were chosen over other DNA that had the same DNA and/or protein sequence of the previous round. Site-specific mutagenesis was performed using QuikChange Lightning Mutagenesis Kit (Agilent Technologies) to create smURFP (C4S mutation) and smURFP C52S.

Series [3] is described as follows: Native PAGE quaternary structure / stoichiometry. Format: physicochemical. How it is done:
Native PAGE was run using NativePAGE Novex Bis-Tris Gel System (Life Technologies) on Native PAGE 4-16% Bis-Tris protein gels (Life Technologies). SDS-denaturing PAGE was run using NuPAGE MOPS SDS running buffer (Life Technologies) and NuPAGE Novex 4-12% Bis-Tris gels (Life Technologies). Precision Plus Protein Dual Color Standards (Bio-Rad) were used as an MW ladder. Zinc blot was performed after running the SDS-PAGE gel using the described method^44. Fluorescence was imaged using a BioSpectrum AC Imaging System (UVP) with EX/EM=535(45)/605(70) nm for tdTomato, EX/EM=650(13)/690(50) nm for smURFP and TDsmURFP, EX/EM=685(40)/710LP nm for IFP1.4 and BV+zinc.

For Cy5 [reference compound], in series [1] (Table 5), the Emission Maximum is reported as 670 nm, the Excitation Maximum is on record as 649 nm, the Extinction Coefficient is reported as 250,000 ^ m^−1cm^−1/chromophore and the Quantum Yield is recorded as 25%. In addition, the “molecular brightness relative to eGFP” value in series [1] (Table 5) stood at 186%. In series [2] (excitation intensity yielding 1,000 photons per s), the “in vitro photobleaching t50%” value stood at 22 s. Further, in series [2] (time to bleach 50% from an initial emission rate of 1,000 photons per s), the “In vitro photostability t50%” value is on record as 22 s.

B1: R3-2 + PCB: evolved APCα FP, SEQ ID NO: 4, with PCB (protein)
chain: MKTGEQRVKIATLLSENEKKIVDKASQDLWRRRPDFIAPGGIAFGQRERALCLRDYGWYLRLITFCLLAGDKDPIESIGLIGIREMYNSLGVPVPGMMESIRCLKEASLSLLDEEDAKETAPYFDYIIQAMS
modifications: phycocyanobilin chromophore; smRUFP Variant Polypeptide
With B1, in series [1], the “extinction coefficient (EC)” value was 74,000 M^−1cm^−1 and the “quantum yield (QY)” value is reported as 13%. For the same molecule, in series [1] (Table 4), the “Molecular Brightnes Relative to smURFP” value is reported as 30%. Also, in series [1] (evolved APCα FPs, Table 4), the “Emission Maximum” value is 648 nm, the “Excitation Maximum” value turned out to be 620 nm, the “Extinction Coefficient” value is 74,000 M^−1 cm^−1 and the “Quantum Yield” value turned out to be 13%. For the same molecule, in the series on Escherichia coli, the “fluorescence when expressed in E. coli (qualitative)” value is given as “lacked fluorescence with BV”.

B2: R7-7: evolved APCα FP, SEQ ID NO: 8, with BV (protein)
chain: B1 chain with G4C, E18K, R33H, F36L, G45S, R61H, D73G, Q129K, M131I
modifications: biliverdin chromophore; smRUFP Variant Polypeptide
Turning to B2, in series [1], the “extinction coefficient (EC)” value is recorded as 250,000 M^−1cm^−1 and the “quantum yield (QY)” value came to 16%. In series [1] (Table 4), the “Molecular Brightnes Relative to smURFP” value turned out to be 123%. Also, in series [1] (evolved APCα FPs, Table 4), the “Emission Maximum” value is 676 nm, the “Excitation Maximum” value came out at 648 nm, the “Extinction Coefficient” value is on record as 250,000 M^−1 cm^−1 and the “Quantum Yield” value came out at 16%. For the same molecule, the “fold brighter than R4-1” value in the series with Escherichia coli was 1.3 fold.

B3: R4-1: evolved APCα FP, SEQ ID NO: 5, with BV (protein)
chain: B1 chain with G45S, G57R, R61H, Q129K
modifications: biliverdin chromophore; smRUFP Variant Polypeptide
Consider B3, for which, in series [1], the “extinction coefficient (EC)” value is 93,000 M^−1cm^−1 and the “quantum yield (QY)” value was 9.0%. Besides, the “Molecular Brightnes Relative to smURFP” value in series [1] (Table 4) was 26%. In addition, in series [1] (evolved APCα FPs, Table 4), the “Emission Maximum” value came out at 674 nm, the “Excitation Maximum” value worked out at 647 nm, the “Extinction Coefficient” value is 93,000 M^−1 cm^−1 and the “Quantum Yield” value turned out to be 9.0%. The “quaternary structure on native gel” value in series [3] is given as “tetramer”.

B4: R8-9: evolved APCα FP, SEQ ID NO: 10, with BV (protein)
chain: B1 chain with G4C, K9N, E18K, F36L, G45S, E48D, R61H, D73G, G96D, Q129K
modifications: biliverdin chromophore; smRUFP Variant Polypeptide
For B4, in series [1], the “extinction coefficient (EC)” value is on record as 175,000 M^−1cm^−1 and the “quantum yield (QY)” value stood at 12%. Further, in series [1] (Table 4), the “Molecular Brightnes Relative to smURFP” value came out at 65%. Further, in series [1] (evolved APCα FPs, Table 4), the “Emission Maximum” value turned out to be 672 nm, the “Excitation Maximum” value came out at 644 nm, the “Extinction Coefficient” value is on record as 175,000 M^−1 cm^−1 and the “Quantum Yield” value was 12%. The “fold brighter than R4-1” value in the series on Escherichia coli was 5.7 fold.

B5: R8-8: evolved APCα FP, SEQ ID NO: 9, with BV (protein)
chain: MKTCEQRVKIATLLSENKKKIVDKASQDLWRRHPDLIAPGGIAFSQRDRALCLRDYGWYLHLITFCLLAGDKGPIESIGLIGIREMYNSLGVPVPAMMESIRCLKEASLSLLDEEDANETAPYFDYIIKAMS
modifications: biliverdin chromophore; smRUFP Variant Polypeptide
For B5, in series [1], the “extinction coefficient (EC)” value is 260,000 M^−1cm^−1 and the “quantum yield (QY)” value stood at 13%. In addition, the “Molecular Brightnes Relative to smURFP” value in series [1] (Table 4) is listed as 104%. Also, in series [1] (evolved APCα FPs, Table 4), the “Emission Maximum” value amounted to 672 nm, the “Excitation Maximum” value is on record as 648 nm, the “Extinction Coefficient” value was 260,000 M^−1 cm^−1 and the “Quantum Yield” value amounted to 13%. The “fold brighter than R4-1” value in the series on Escherichia coli amounted to 5.8 fold.

B6: R10-10: evolved APCα FP, SEQ ID NO: 11, with BV (protein)
chain: B5 chain with K9N, S15T
modifications: biliverdin chromophore; smRUFP Variant Polypeptide
For the molecule B6, in series [1], the “extinction coefficient (EC)” value was 200,000 M^−1cm^−1 and the “quantum yield (QY)” value is 15%. In addition, the “Molecular Brightnes Relative to smURFP” value in series [1] (Table 4) is recorded as 93%. In addition, in series [1] (evolved APCα FPs, Table 4), the “Emission Maximum” value stood at 672 nm, the “Excitation Maximum” value was determined as 646 nm, the “Extinction Coefficient” value is 200,000 M^−1 cm^−1 and the “Quantum Yield” value is recorded as 15%. Further, in the series with Escherichia coli, the “fold brighter than R4-1” value was 8.3 fold. Moreover, the “quaternary structure on native gel” value in series [3] is “homodimer”.

B7: R11-2: evolved APCα FP, SEQ ID NO: 12, with BV (protein)
chain: B5 chain with K9N, S15T, G82S, D113E
modifications: biliverdin chromophore; smRUFP Variant Polypeptide
As to B7, the “Molecular Brightnes Relative to smURFP” value in series [1] (Table 4) stood at 70%. Also, in series [1] (evolved APCα FPs, Table 4), the “Emission Maximum” value is 672 nm, the “Excitation Maximum” value was found to be 642 nm, the “Extinction Coefficient” value is 190,000 M^−1 cm^−1 and the “Quantum Yield” value stood at 12%. Besides, the “fluorescence when expressed in E. coli (qualitative)” value in the series with Escherichia coli was “slightly more fluorescent than R10-10”.

For the origin of these results see patent US10501502B2, “Allophycocyanin alpha-subunit evolved labeling proteins (smURFPs)” (The Regents of the University of California, priority 2016, dated 2019).
